Data from patent US20210292396A1.

B1: ePGT121.15.H1.L1 (antibody, V domains shown)
VH: QMQLQESGPGLVKPGETLSLTCSVSGASISSSYWSWLRETPGKGLEWIGYTHHSGDTNYAPSLKSRVHLGLHPSKNQVSLSLTSVTAADTAVYYCARTLHGRRIYGVVAFNEWFTYFYWEVWGNGTQVTVSS
VL: SDISVAPGETVRISCGGESIGSRAVQWYQHRAGQAPKLIIYNNQDRPPGIPERFSGSPDIDFGTTATLTITNVEAGDEATYYCHIWDSRRPTNWVFGGGTTLTVL
B2: ePGT121.15.H6.L1 (antibody, V domains shown)
VH: QMQLQESGPGLVKPGETLSLTCSVSGASISSSYWSWLRETPGKGLEWIGYTHHSGDTNYAPSLKSRVHLGLHPSKNQVSLSLTSVTAADTAVYYCARTLHGRRIYGVVAFNEFFTYFYWEVWGKGTQVTVSS
VL: SDISVAPGETVRISCGGESIGSRAVQWYQHRAGQAPKLIIYNNQDRPPGIPERFSGSPDIDFGTTATLTITNVEAGDEATYYCHIWDSRRPTNWVFGGGTTLTVL

Tests used:
[1] = biological target: HIV Env of the 106-virus cross-clade panel (Table 5); assay: cell-based or functional assay
[2] = biological target: HIV Env of the 113-member cross-clade virus panel (Table 6); assay: cell-based or functional assay

Row | Binder | % Breadth [1] [%] | Median IC50 [1] [ng/mL] | breadth of neutralization at an IC80 of 0.01 microg/ml [1] [%] | median IC80, 106-virus panel [1] [ng/mL] | neutralization breadth (IC80), 106-virus panel [1] [%] | Breadth [2] [%] | GeoMean [2]
1 | B1 | 75 | 1 | 50 | 9.3 | 69 | 76 | 0.0061
2 | B2 | – | – | – | – | – | 77 | 0.0048
